# Target: Escherichia coli thiol peroxidase, oxidized (disulfide) state (Escherichia coli) (UniProt P0A862)
# Assay: SEC-MALS
substance,measurement,value
"Escherichia coli thiol peroxidase, oxidized (disulfide) state (from UniProt P0A862 1-168) (enzyme)",stoichiometry N,3
